T1: recombinant human CSF1 protein (human) (UniProt P09603)
T1 sequence (looked up): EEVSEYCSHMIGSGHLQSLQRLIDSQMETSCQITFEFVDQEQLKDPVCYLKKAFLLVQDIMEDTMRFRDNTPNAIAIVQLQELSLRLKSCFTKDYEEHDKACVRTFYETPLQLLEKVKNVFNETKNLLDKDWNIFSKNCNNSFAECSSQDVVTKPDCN

T2: murine CD40 overexpressed on CHO-K1 cells (CHOK1/CD40) (murine, UniProt P27512 20-289)
T2 construct: whole, on cells; also called mCD40
T2 sequence (looked up): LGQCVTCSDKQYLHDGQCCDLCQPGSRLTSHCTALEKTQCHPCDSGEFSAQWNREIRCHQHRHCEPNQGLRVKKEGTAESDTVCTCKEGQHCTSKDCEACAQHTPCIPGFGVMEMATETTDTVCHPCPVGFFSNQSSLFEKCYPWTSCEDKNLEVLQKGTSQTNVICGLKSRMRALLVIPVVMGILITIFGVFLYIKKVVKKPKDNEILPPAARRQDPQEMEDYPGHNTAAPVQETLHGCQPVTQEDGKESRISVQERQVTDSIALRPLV


Key:
[1] = target: T1, recombinant human CSF1 protein (human); experiment: SPR, BioRad ProteOn XPR 360
[2] = target: T2, murine CD40 overexpressed on CHO-K1 …; experiment: flow cytometry on CHOK1/CD40 cells
Protocol: For cell binding assays, immortalized cell lines were engineered to stably express CD40 (CHOK1/CD40). Increasing concentrations of the murine CSF1R-Fc-CD40L chimeric protein were incubated with the over-expressing (CHOK1/CD40) cell line for 2 hours. Cells were collected, washed, and stained with antibodies for the detection of chimeric protein binding by flow cytometry.
As a negative control, there was no detectable binding to the parental (non-CD40 expressing) CHOK1 cell line.

CSF1R-Fc (Fc fusion), sequence (chain): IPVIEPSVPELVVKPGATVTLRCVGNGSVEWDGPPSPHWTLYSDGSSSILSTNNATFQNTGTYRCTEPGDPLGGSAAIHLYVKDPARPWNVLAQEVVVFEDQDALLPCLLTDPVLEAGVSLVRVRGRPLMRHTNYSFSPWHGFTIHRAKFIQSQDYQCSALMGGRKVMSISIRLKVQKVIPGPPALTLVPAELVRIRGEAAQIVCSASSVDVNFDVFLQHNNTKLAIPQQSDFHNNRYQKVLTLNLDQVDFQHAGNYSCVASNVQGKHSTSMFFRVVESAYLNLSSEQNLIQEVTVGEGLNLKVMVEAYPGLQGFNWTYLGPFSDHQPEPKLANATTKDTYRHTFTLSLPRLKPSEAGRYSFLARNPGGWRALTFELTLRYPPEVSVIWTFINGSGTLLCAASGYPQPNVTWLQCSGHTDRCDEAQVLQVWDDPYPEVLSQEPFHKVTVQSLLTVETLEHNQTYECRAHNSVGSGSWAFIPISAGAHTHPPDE

Row | Molecule | Kd [1] [nM] | koff [1] [s⁻¹] | kon [1] [M⁻¹ s⁻¹] | EC50 [2] [nM]
1 | CSF1R-Fc (Fc fusion) | 0.275 | 0.000335 | 1.22e+06 | 
2 | murine CSF1R-Fc-CD40L chimeric protein (Fc fusion, UniProt P09581 20-515, looked up, constructed 'as described above in the Detailed Description and in U.S. 62/464,002'; also called mCSF1R-Fc-CD40L; mCD115-Fc-CD40L; not shown: Fc linker of the murine chimera) APVIEPSGPELVVEPGETVTLRCVSNGSVEWDGPISPYWTLDPESPGSTLTTRNATFKNTGTYRCTELEDPMAGSTTIHLYVKDPAHSWNLLAQEVTVVEGQEAVLPCLITDPALKDSVSLMREGGRQVLRKTVYFFSPWRGFIIRKAKVLDSNTYVCKTMVNGRESTSTGIWLKVNRVHPEPPQIKLEPSKLVRIRGEAAQIVCSATNAEVGFNVILKRGDTKLEIPLNSDFQDNYYKKVRALSLNAVDFQDAGIYSCVASNDVGTRTATMNFQVVESAYLNLTSEQSLLQEVSVGDSLILTVHADAYPSIQHYNWTYLGPFFEDQRKLEFITQRAIYRYTFKLFLNRVKASEAGQYFLMAQNKAGWNNLTFELTLRYPPEVSVTWMPVNGSDVLFCDVSGYPQPSVTWMECRGHTDRCDEAQALQVWNDTHPEVLSQKPFDKVIIQSQLPIGTLKHNMTYFCKTHNSVGNSSQYFRAVSLGQSKQLPDESLFTPHRRLDKVEEEVNLHEDFVFIKKLKRCNKGEGSLSLLNCEEMRRQFEDLVKDITLNKEEKKENSFEMQRGDEDPQIAAHVVSEANSNAASVLQWAKKGYYTMKSNLVMLENGKQLTVKREGLYYVYTQVTFCSNREPSSQRPFIVGLWLKPSSGSERILLKAANTHSSSQLCEQQSVHLGGVFELQAGASVFVNVTEASQVIHRVGFSSFGLLKL |  |  |  | 91.1

Source: patent publication US20200123214A1 (published 2020)
